Experimental data as given in FireProtDB (doi:10.1016/j.csbj.2015.03.010).

Details: Aspergillus aculeatus; pH 4.5; Thermal; DSC; sodium acetate buffer 50 mM; transition: 2; reversible: no; whole UniProt chain shown

B1: Arabinogalactan endo-beta-1,4-galactanase wild type, P48842 (protein)
chain: MFASLLLAALPLLTHAALTYRGADISSLLLLEDEGYSYKNLNGQTQALETILADAGINSIRQRVWVNPSDGSYDLDYNLELAKRVKAAGMSLYLDLHLSDTWADPSDQTTPSGWSTTDLGTLKWQLYNYTLEVCNTFAENDIDIEIISIGNEIRAGLLWPLGETSSYSNIGALLHSGAWGVKDSNLATTPKIMIHLDDGWSWDQQNYFYETVLATGELLSTDFDYFGVSYYPFYSASATLASLKTSLANLQSTYDKPVVVVETNWPVSCPNPAYAFPSDLSSIPFSVAGQQEFLEKLAAVVEATTDGLGVYYWEPAWIGNAGLGSSCADNLMVDYTTDEVYESIETLGEL
Tm: 60.9 °C
